Results as given in publication PMC5341729 (Molecular Biology of the Cell, 2017).

T1: MYO10-TPRN^BAIT (taperin fused to MYO10^HMM) (mouse, UniProt A2AI08 1-749)
T1 sequence: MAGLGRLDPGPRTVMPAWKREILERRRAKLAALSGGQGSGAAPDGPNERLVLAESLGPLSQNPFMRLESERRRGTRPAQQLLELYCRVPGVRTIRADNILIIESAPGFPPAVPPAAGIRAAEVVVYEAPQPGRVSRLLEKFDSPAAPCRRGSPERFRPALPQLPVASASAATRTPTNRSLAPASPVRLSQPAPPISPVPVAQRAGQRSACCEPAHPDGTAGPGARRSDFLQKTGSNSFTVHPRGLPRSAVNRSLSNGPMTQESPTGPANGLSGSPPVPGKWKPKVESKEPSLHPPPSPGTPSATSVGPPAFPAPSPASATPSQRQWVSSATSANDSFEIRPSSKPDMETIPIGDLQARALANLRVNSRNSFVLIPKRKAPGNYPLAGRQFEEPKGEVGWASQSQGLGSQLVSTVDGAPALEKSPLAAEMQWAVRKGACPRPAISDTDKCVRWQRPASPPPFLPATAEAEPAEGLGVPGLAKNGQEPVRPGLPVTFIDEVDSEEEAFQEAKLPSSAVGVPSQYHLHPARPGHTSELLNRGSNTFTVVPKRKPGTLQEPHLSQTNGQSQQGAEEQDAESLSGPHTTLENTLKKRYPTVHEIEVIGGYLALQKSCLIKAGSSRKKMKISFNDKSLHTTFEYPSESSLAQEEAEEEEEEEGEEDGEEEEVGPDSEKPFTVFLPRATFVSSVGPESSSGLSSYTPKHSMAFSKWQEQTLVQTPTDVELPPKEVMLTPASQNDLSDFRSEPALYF

T2: MYO10-MYO7A(TAIL)^BAIT (EGFP-MYO10^HMM fused to the tail domain of MYO7A) (UniProt Q13402 858-2215)
T2 sequence: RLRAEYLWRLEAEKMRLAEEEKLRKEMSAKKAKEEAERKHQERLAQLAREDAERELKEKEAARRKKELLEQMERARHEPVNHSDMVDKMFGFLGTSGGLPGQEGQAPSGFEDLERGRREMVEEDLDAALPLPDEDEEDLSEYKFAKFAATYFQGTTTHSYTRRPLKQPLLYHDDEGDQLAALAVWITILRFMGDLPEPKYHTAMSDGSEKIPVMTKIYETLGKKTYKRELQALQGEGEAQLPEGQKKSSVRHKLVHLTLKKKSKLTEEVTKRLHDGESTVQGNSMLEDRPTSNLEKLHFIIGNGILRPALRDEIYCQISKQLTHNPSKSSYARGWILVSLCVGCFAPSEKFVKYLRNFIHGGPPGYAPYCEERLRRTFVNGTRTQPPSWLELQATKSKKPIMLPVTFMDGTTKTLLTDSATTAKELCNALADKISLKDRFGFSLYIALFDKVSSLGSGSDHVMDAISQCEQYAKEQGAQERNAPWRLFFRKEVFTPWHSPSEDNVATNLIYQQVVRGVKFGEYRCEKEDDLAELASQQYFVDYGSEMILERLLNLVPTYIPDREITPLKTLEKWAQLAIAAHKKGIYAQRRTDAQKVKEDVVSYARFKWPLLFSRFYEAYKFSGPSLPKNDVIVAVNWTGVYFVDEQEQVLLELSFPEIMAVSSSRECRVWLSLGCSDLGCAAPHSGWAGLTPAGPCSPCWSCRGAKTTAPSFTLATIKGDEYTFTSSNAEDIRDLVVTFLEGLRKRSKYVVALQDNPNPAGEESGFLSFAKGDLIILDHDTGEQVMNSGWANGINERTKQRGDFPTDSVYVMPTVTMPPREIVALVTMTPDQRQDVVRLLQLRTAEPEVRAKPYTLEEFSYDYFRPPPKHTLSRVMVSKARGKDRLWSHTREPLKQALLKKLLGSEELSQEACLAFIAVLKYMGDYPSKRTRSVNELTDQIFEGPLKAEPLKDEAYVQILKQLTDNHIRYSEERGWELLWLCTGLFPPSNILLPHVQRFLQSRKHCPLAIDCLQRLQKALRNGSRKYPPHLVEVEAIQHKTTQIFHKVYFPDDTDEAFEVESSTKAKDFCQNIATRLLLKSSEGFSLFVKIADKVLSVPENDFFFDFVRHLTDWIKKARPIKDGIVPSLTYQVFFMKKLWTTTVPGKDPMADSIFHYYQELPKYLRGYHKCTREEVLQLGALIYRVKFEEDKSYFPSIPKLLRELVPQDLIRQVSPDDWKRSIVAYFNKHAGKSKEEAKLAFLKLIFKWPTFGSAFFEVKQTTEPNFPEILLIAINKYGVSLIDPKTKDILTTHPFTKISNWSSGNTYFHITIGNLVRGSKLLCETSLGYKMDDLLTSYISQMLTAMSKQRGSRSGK

B1: CHD4(561-936)^PREY (domain or fragment)
chain: QVMFRNYQRKNDMDEPPSGDFGGDEEKSRKRKNKDPKFAEMEERFYRYGIKPEWMMIHRILNHSVDKKGHVHYLIKWRDLPYDQASWESEDVEIQDYDLFKQSYWNHRELMRGEEGRPGKKLKKVKLRKLERPPETPTVDPTVKYERQPEYLDATGGTLHPYQMEGLNWLRFSWAQGTDTILADEMGLGKTVQTAVFLYSLYKEGHSKGPFLVSAPLSTIINWEREFEMWAPDMYVVTYVGDKDSRAIIRENEFSFEDNAIRGGKKASRMKKEASVKFHVLLTSYELITIDMAILGSIDWACLIVDEAHRLKNNQSKFFRVLNGYSLQHKLLLTGTPLQNNLEELFHLLNFLTPERFHNLEGFLEEFADIAKEDQI
B2: mCherry-MYRIP (MYO7A-Rab interacting protein), MYRIP^PREY (natural protein)
chain: MGRKLDLSGLTDDETEHVLQVVQRDFNLRKKEEERLSELKQKLDEEGSKCSILSKHQQFVEHCCMRCCSPFTFLVNTKRQCGDCKFNVCKSCCSYQKHEKAWVCCVCQQARLLRAQSLEWFYNNVKSRFKRFGSAKVLKNLYRKHRLESGACFDILGGSLFESNLENEGSISGSDSTFYRQSEGHSVMDTLAVALRVAEEAIEEAISKAEAYGDSLDKQNEASYLRDHKEELTEELATTILQKIIRKQKSKSEQQVEEEPGWPHPQSCSTKVADEGTSASPGGYRAPAALWRSQSAFSITGEEALKTPPVEAPSRQPRDQGQHPRAESALPSWKSVDRLDETNLAPVLQSPDGNWVALKDGAPPPTRLLAKPKSGTFQALEVASSVASAYDEMGSDSEEDFDWSEALSKLCPRSRALPRNPQPQPTQAQSSDQGPIAASPSSALSPNPEAMCSDSETSSAGSSREVGHQARLSWLQRKAPRNPAAEKMRLHGELDVNFNPQLASRETSDSSEPEEAPHTTDRRARRWRRARLGSEEPSKEPSSPSAQLRDLDTHQVSDDLSETDISNEARDPQTLTDTTEEKRRNRLYELAMKMSEKETSSGEDQESEPKTESENQKESLSSEDNSQSVQEELKKKFSAVSLCNISTEVLKVINATEELIAGSTGPWESPQVPPDRQKGMFPRGTDQVRLDEQLTSLEENVYLAAGTVYGLETQLTELEDAARCIHSGTDETHLADLEDQVATAAAQVHHAELQISDIESRISALTIAGLNIAPCVRFTRRRDQKQRTQVQTIDTSRQQRRKLPAPPVKAEKIETSSVTTIKTFNHNFILQGSSTNRTKERKGTTKDLMEPALESAVMY

How the values were obtained:
[1] = biological target: T1, MYO10-TPRN^BAIT (taperin fused to …); assay: NanoSPD
[2] = biological target: T2, MYO10-MYO7A(TAIL)^BAIT (EGFP-MYO10^HMM …); assay: NanoSPD

Binder	fold increase of prey fluorescence at filopodial tips against MYO10^(NO BAIT) [1] [fold]	fold increase of prey fluorescence at filopodial tips against MYO10^(NO BAIT) [2] [fold]
B1	7	–
B2	–	11.8
